{
  "source": "patent US20220042033A1",
  "about": "“COMPOSITION AND METHOD FOR CONFERRING AND/OR ENHANCING TOLERANCE AGAINST HERBICIDES BY USING VARIANTS OF PPO” (FarmHannong Co., Ltd., priority 2017, published 2022)",
  "molecules": {"B1": {"name": "A170C + M365I: MxPPO (SEQ ID NO: 3) variant (protein)", "chain": "MHHMPRTTGMNVAVVGGGISGLAVAHHLRSRGTDAVLLESSARLGGAVGTHALAGYLVEQGPNSFLDREPATRALAAALNLEGRIRAADPAAKRRYVYTRGRLRSVPASPPAFLASDILPLGARLRVAGELFSRRAPEGVDESLAAFGRRHLGHRATQVLLDAVQTGIYCGDVEQLSVAATFPMLVKMEREHRSLILGAIRAQKAQRQAALPAGTAPKLSGALSTFDGGLQVLIDALAASLGDAAHVGARVEGLAREDGGWRLIIEEHGRRAELSVAQVVLAAPAHATAKLLRPLDDALAALVAGIAYAPIAVVHLGFDAGTLPAPDGFGFLVPAEEQRRMLGAIHASTTFPFRAEGGRVLYSCIVGGARQPGLVEQDEDALAALAREELKALAGVTARPSFTRVFRWPLGIPQYNLGHLERVAAIDAALQRLPGLHLIGNAYKGVGLNDCIRNAAQLADALVAGNTSHAP", "modifications": "Synthetic (Protoporphyrinogen IX oxidase (MxPPO) of Myxococcus xanthus)"}, "B2": {"name": "A170C + M365V: MxPPO (SEQ ID NO: 3) variant (protein)", "chain": "MHHMPRTTGMNVAVVGGGISGLAVAHHLRSRGTDAVLLESSARLGGAVGTHALAGYLVEQGPNSFLDREPATRALAAALNLEGRIRAADPAAKRRYVYTRGRLRSVPASPPAFLASDILPLGARLRVAGELFSRRAPEGVDESLAAFGRRHLGHRATQVLLDAVQTGIYCGDVEQLSVAATFPMLVKMEREHRSLILGAIRAQKAQRQAALPAGTAPKLSGALSTFDGGLQVLIDALAASLGDAAHVGARVEGLAREDGGWRLIIEEHGRRAELSVAQVVLAAPAHATAKLLRPLDDALAALVAGIAYAPIAVVHLGFDAGTLPAPDGFGFLVPAEEQRRMLGAIHASTTFPFRAEGGRVLYSCVVGGARQPGLVEQDEDALAALAREELKALAGVTARPSFTRVFRWPLGIPQYNLGHLERVAAIDAALQRLPGLHLIGNAYKGVGLNDCIRNAAQLADALVAGNTSHAP", "modifications": "Synthetic (Protoporphyrinogen IX oxidase (MxPPO) of Myxococcus xanthus)"}, "B3": {"name": "I311M + M365I: MxPPO (SEQ ID NO: 3) variant (protein)", "chain": "MHHMPRTTGMNVAVVGGGISGLAVAHHLRSRGTDAVLLESSARLGGAVGTHALAGYLVEQGPNSFLDREPATRALAAALNLEGRIRAADPAAKRRYVYTRGRLRSVPASPPAFLASDILPLGARLRVAGELFSRRAPEGVDESLAAFGRRHLGHRATQVLLDAVQTGIYAGDVEQLSVAATFPMLVKMEREHRSLILGAIRAQKAQRQAALPAGTAPKLSGALSTFDGGLQVLIDALAASLGDAAHVGARVEGLAREDGGWRLIIEEHGRRAELSVAQVVLAAPAHATAKLLRPLDDALAALVAGIAYAPMAVVHLGFDAGTLPAPDGFGFLVPAEEQRRMLGAIHASTTFPFRAEGGRVLYSCIVGGARQPGLVEQDEDALAALAREELKALAGVTARPSFTRVFRWPLGIPQYNLGHLERVAAIDAALQRLPGLHLIGNAYKGVGLNDCIRNAAQLADALVAGNTSHAP", "modifications": "Synthetic (Protoporphyrinogen IX oxidase (MxPPO) of Myxococcus xanthus)"}},
  "key": {"MxPPO [1]": {"test_system": "MxPPO", "experiment": "PPO enzyme activity of purified MBP-fused MxPPO wild type and variants", "assay_type": "biochemical, Myxococcus xanthus", "details": "PPO enzyme activity of purified MxPPO protein, relative to wild type", "experimental": "Thus, PPO proteins of wild type and variants were expressed as fused to MBP and were used for experiments.\nThe following process for purification of PPO protein was performed in a 4° C. cold room. […] The column was washed with 3 column volumes of buffer and the presence of protein in the washing solution was examined. When the protein was no longer detected, the washing procedure was terminated. Then, the MBP-PPO protein was eluted with approximately 2 column volumes of buffer containing 20 mM maltose. The protein concentration of each eluent was determined and the elution was stopped when the protein was no longer detected. Ten microliter of each fraction was investigated for protein quantification and SDS-PAGE analysis. The highly pure fractions of PPO protein variants were used for the enzyme assay.\nSince protoporphyrinogen IX, a substrate of PPO protein, was not commercially available, it was chemically synthesized in the laboratory. Overall process was performed in dark under nitrogen stream. […] of protoporphyrin IX was dissolved in 20 ml of 20% (v/v) EtOH, and stirred under dark condition for 30 minutes. The obtained protoporphyrin IX solution was put into a 15 ml screw tube in an amount of 800 μl, and flushed with nitrogen gas for 5 minutes. To this, 1.5 g of sodium amalgam was added and vigorously shaken for 2 minutes. The lid was opened to exhaust hydrogen gas in the tube. Thereafter, the lid was closed and incubated for 3 minutes. The protoporphyrinogen IX solution was filtered using syringe and cellulose membrane filter. To 600 μl of the obtained protoporphyrinogen IX solution, approximately 300 μl of 2M MOPS [3-(N-morpholino) propanesulfonic acid] was added to adjust pH to 8.0. To determine the enzyme activity of PPO protein, a reaction mixture was prepared with the following composition (based on 10 ml): 50 mM Tris-Cl (pH 8.0); 50 mM NaCl; 0.04% (v/v) Tween 20; 40 mM glucose (0.072 g); 5 units glucose oxidase (16.6 mg); and 10 units catalase (1 μl).\nHundred and eighty microliters of a reaction mixture […] were placed in 96 well plates and 20 μl of purified PPO proteins were added. After 50 μl of the mineral oil was layered, the reaction was initiated by adding the substrate, protoporphyrinogen IX solution, to a final concentration of 50 μM. The reaction proceeded at room temperature for 30 min and the fluorescence of protoporphyrin IX was measured using Microplate reader (Sense, Hidex) (excitation: 405 nm; emission: 633 nm). To calculate the PPO enzyme activity, the protoporphyrinogen IX solution was kept open in the air overnight to oxidize the solution. To this, 2.7 N HCl was added, and the absorbance at 408 nm was measured. A standard curve was generated using standard protoporphyrin IX, and PPO activity was measured by calibration of protoporphyrin IX using the standard curve of protoporphyrin IX.\nActivities of variants were presented relatively compared to that of wild type."}, "MxPPO [2]": {"test_system": "MxPPO", "experiment": "Herbicide tolerance test of MxPPO wild type and variants in PPO-deficient E. coli BT3(ΔPPO), growth on herbicide-containing LB agar", "assay_type": "cell-based, Myxococcus xanthus", "details": "relative to MxPPO WT, light; for Herbicide tolerance, flumioxazin: up to 400 μM (FIGS. 15-17); for Herbicide tolerance, sulfentrazone: up to 1000 μM (FIGS. 18-20); for Herbicide tolerance, tiafenacil: 2000 μM (FIG. 14)", "experimental": "Then, the extent of tolerance was evaluated."}},
  "data": [
    {"molecule": "B1", "values": [
      {"measurement": "Activity (%)", "setting": "MxPPO [1]", "value": 78, "unit": "%"},
      {"measurement": "Herbicide tolerance, flumioxazin", "setting": "MxPPO [2]", "value": "+ (1-9 fold higher tolerance)"},
      {"measurement": "Herbicide tolerance, sulfentrazone", "setting": "MxPPO [2]", "value": "+ (1-9 fold higher tolerance)"}
    ]},
    {"molecule": "B2", "values": [
      {"measurement": "Activity (%)", "setting": "MxPPO [1]", "value": 71, "unit": "%"},
      {"measurement": "Herbicide tolerance, tiafenacil", "setting": "MxPPO [2]", "value": "+ (1-9 fold higher tolerance)"},
      {"measurement": "Herbicide tolerance, flumioxazin", "setting": "MxPPO [2]", "value": "++ (10-99 fold higher tolerance)"},
      {"measurement": "Herbicide tolerance, sulfentrazone", "setting": "MxPPO [2]", "value": "+ (1-9 fold higher tolerance)"}
    ]},
    {"molecule": "B3", "values": [
      {"measurement": "Activity (%)", "setting": "MxPPO [1]", "value": 75, "unit": "%"},
      {"measurement": "Herbicide tolerance, tiafenacil", "setting": "MxPPO [2]", "value": "+ (1-9 fold higher tolerance)"},
      {"measurement": "Herbicide tolerance, flumioxazin", "setting": "MxPPO [2]", "value": "++ (10-99 fold higher tolerance)"},
      {"measurement": "Herbicide tolerance, sulfentrazone", "setting": "MxPPO [2]", "value": "+ (1-9 fold higher tolerance)"}
    ]}
  ]
}
